{"source": "paper PMC7752828", "origin": "cited, not measured here", "key": {"[1]": {"target": "Fibrin E-domain E-domain (Homo sapiens) (UniProt P02671)"}, "[2]": {"target": "Fibrin(ogen) gamma' chain γ'-domain (Homo sapiens) (UniProt P02679)"}}, "note": "pKd: −log10 of the molar value."}
{"substance": "Thrombin (from UniProt P00734)", "values": [{"measurement": "pKd", "setting": "[1]", "result": 5.55}, {"measurement": "pKd", "setting": "[2]", "result": 7.00}]}
